B1: TCN-536 (5095_N01) (antibody, V domains shown)
VH: QVQLQQWGAGLLKPSETLSLTCAVYGGSFSVSGYYWSWIRQPPGRGLEWIGEISHGGSTNYNPSLKSRVTISVDTTKNQFSLRLSSVTAADTAVYYCARGTDPDTEVYCRVGNCAAFDYWGQGSLVTVSS
VL: EIILAQSPGTLSLSPGERATLSCRASQFVSTRSLAWYQQRPGQAPRLLIYGASSRATGIPDRFSGSGSGTDFTLTISRLEPEDFAVYYCQHYGYSPRYAFGQGSKVEIK
B2: TCN-540 (5060_F05) (antibody, V domains shown)
VH: QVQLVQSGGGVVQPGRSLRLSCAASGFTFSSYAMHWVRQAPGKGLEWVAIISYDGNDQYYTDSVKGRFTISRDSSKVYLQMHRLRPEDTAVYYCAKEFETSGYFHGSFDYWGQGILVTVSS
VL: QSALTQPASVSGSPGQSITISCTGTSSDVGGYNYVSWYQQHPGKAPKLLIYEVTNWPSGVSNRFSGSKSGNTASLTISGLQAEDEADYYCSSYAGSSTWVFGGGTRVTVL
B3: TCN-553 (5261_C18) (antibody, V domains shown)
VH: QVQVVQSGTEVKKPGSSVKVSCQTSGGRFMSYAITWVRQAPGQGLEWMGGIVPVFGTANYAQKFQGRVTITTDDSTRTAYMELSSLRSEDTAVYYCGFRYGSGYGFDSWGQGTLVTVSS
VL: EIVLTQSPGTLSLSPGERATLSCRASQSVSSSYLAWYQKKPGQAPRLLIYGASTRATGIPDRFTGSGSGTDFTLSISRLEPEDFAVYYCQHFGTSVFTFGGGTKVEIK

Legend:
Settings in all cases: remark: other sources report otherwise
[1] = biological target: recombinant homotrimeric HA A/Wisconsin/67/05 H3N2 (Influenza A virus A/Wisconsin/67/2005(H3N2)); experiment: protein microarray, purified IgG, trimeric HA
[2] = biological target: recombinant homotrimeric HA A/Japan/305/57 H2N2 (Influenza A virus A/Japan/305/1957(H2N2)); experiment: protein microarray, purified IgG, trimeric HA
[3] = biological target: recombinant homotrimeric HA A/Egypt/3300-NAMRU3/08 H5N1 (Influenza A virus A/Egypt/3300-NAMRU3/2008(H5N1)); experiment: protein microarray, purified IgG, trimeric HA
[4] = biological target: recombinant homotrimeric HA A/northern shoveler/California/HKWF115/07 H6N4 (Influenza A virus A/northern shoveler/California/HKWF115/2007(H6N1)); experiment: protein microarray, purified IgG, trimeric HA
[5] = biological target: recombinant homotrimeric HA A/chicken/Vietnam/NCVD-016/08 H5N1 (Influenza A virus A/chicken/Vietnam/NCVD-016/2008(H5N1)); experiment: protein microarray, purified IgG, trimeric HA
[6] = biological target: recombinant homotrimeric HA A/Vietnam/1203/04 H5N1 (Influenza A virus A/VietNam/1203/2004(H5N1)); experiment: protein microarray, purified IgG, trimeric HA
[7] = biological target: recombinant homotrimeric HA A/South Carolina/1/18 H1N1 (Influenza A virus A/South Carolina/1/18 (H1N1)); experiment: protein microarray, purified IgG, trimeric HA
[8] = biological target: recombinant homotrimeric HA A/Hong Kong/156/97 H5N1 (Influenza A virus A/Hong Kong/156/97 (H5N1)); experiment: protein microarray, purified IgG, trimeric HA
[9] = biological target: recombinant homotrimeric HA A/Netherlands/219/03 H7N7 (Influenza A virus A/Netherlands/219/03(H7N7)); experiment: protein microarray, purified IgG, trimeric HA
[10] = biological target: recombinant homotrimeric HA A/California/4/09 H1N1 (Influenza A virus A/California/04/2009(H1N1)); experiment: protein microarray, purified IgG, trimeric HA
[11] = biological target: recombinant homotrimeric HA A/Anhui/1/05 H5N1 (Influenza A virus A/Anhui/1/2005(H5N1)); experiment: protein microarray, purified IgG, trimeric HA
[12] = biological target: recombinant soluble homotrimeric HA of A/Vietnam/1203/04 (H5N1) (Influenza A virus A/VietNam/1203/2004(H5N1)); experiment: HA microarray, BCC supernatant
[13] = biological target: recombinant soluble homotrimeric HA of A/Wisconsin/67/05 (H3N2) (Influenza A virus A/Wisconsin/67/2005(H3N2)); experiment: HA microarray, BCC supernatant
[14] = biological target: recombinant soluble homotrimeric HA of A/Anhui/1/05 (H5N1) (Influenza A virus A/Anhui/1/2005(H5N1)); experiment: HA microarray, BCC supernatant
[15] = biological target: recombinant soluble homotrimeric HA of A/swine/Ontario/01911-2/99 (H4N6) (Influenza A virus A/Swine/Ontario/01911-2/99 (H4N6)); experiment: HA microarray, BCC supernatant
[16] = biological target: recombinant soluble homotrimeric HA of A/chicken/Vietnam/NCVD-016/08 (H5N1) (Influenza A virus A/chicken/Vietnam/NCVD-016/2008(H5N1)); experiment: HA microarray, BCC supernatant
[17] = biological target: recombinant soluble homotrimeric HA of A/Netherlands/219/03 (H7N7) (Influenza A virus A/Netherlands/219/03(H7N7)); experiment: HA microarray, BCC supernatant
[18] = biological target: recombinant soluble homotrimeric HA of A/duck/Yangzhou/02/05 (H8N4) (Influenza A virus A/duck/Yangzhou/02/2005(H8N4)); experiment: HA microarray, BCC supernatant
[19] = biological target: recombinant soluble homotrimeric HA of A/Japan/305/57 (H2N2) (Influenza A virus A/Japan/305/1957(H2N2)); experiment: HA microarray, BCC supernatant
[20] = biological target: recombinant soluble homotrimeric HA of A/California/4/09 (H1N1) (Influenza A virus A/California/04/2009(H1N1)); experiment: HA microarray, BCC supernatant
[21] = biological target: recombinant soluble homotrimeric HA of A/northern shoveler/California/HKWF115/07 (H6) (Influenza A virus A/northern shoveler/California/HKWF115/2007(H6N1)); experiment: HA microarray, BCC supernatant
[22] = biological target: recombinant soluble homotrimeric HA of A/Hong Kong/2108/03 (H9N2) (Influenza A virus A/HK/2108/2003(H9N2)); experiment: HA microarray, BCC supernatant
[23] = biological target: recombinant homotrimeric HA A/Indonesia/5/05 H5N1 (Influenza A virus A/Indonesia/5/2005(H5N1)); experiment: protein microarray, purified IgG, trimeric HA
[24] = biological target: recombinant homotrimeric HA A/Hong Kong/2108/03 H9N2 (Influenza A virus A/HK/2108/2003(H9N2)); experiment: protein microarray, purified IgG, trimeric HA
[25] = biological target: recombinant homotrimeric HA A/Solomon Islands/3/06 H1N1 (Influenza A virus A/Solomon Islands/3/2006(H1N1)); experiment: protein microarray, purified IgG, trimeric HA
[26] = biological target: recombinant soluble homotrimeric HA of A/Solomon Islands/3/06 (H1N1) (Influenza A virus A/Solomon Islands/3/2006(H1N1)); experiment: HA microarray, BCC supernatant
[27] = biological target: recombinant soluble homotrimeric HA of A/Indonesia/5/05 (H5N1) (Influenza A virus A/Indonesia/5/2005(H5N1)); experiment: HA microarray, BCC supernatant
[28] = biological target: recombinant homotrimeric HA A/Hong Kong/1073/99 H9N2 (Influenza A virus A/Hong Kong/1073/99 (H9N2)); experiment: protein microarray, purified IgG, trimeric HA

Binder | Trimeric HA Binding: RLU [1] | Trimeric HA Binding: RLU [2] | Trimeric HA Binding: RLU [3] | Trimeric HA Binding: RLU [4] | Trimeric HA Binding: RLU [5] | Trimeric HA Binding: RLU [6] | Trimeric HA Binding: RLU [7] | Trimeric HA Binding: RLU [8] | Trimeric HA Binding: RLU [9] | Trimeric HA Binding: RLU [10] | Trimeric HA Binding: RLU [11] | Trimeric HA Binding: RLU [12] | Trimeric HA Binding: RLU [13] | Trimeric HA Binding: RLU [14] | Trimeric HA Binding: RLU [15] | Trimeric HA Binding: RLU [16] | Trimeric HA Binding: RLU [17] | Trimeric HA Binding: RLU [18] | Trimeric HA Binding: RLU [19] | Trimeric HA Binding: RLU [20] | further results
B1 | 24700 RLU | 771 RLU | 4710 RLU | 114 RLU | 419 RLU | 749 RLU | 160 RLU | 732 RLU | 186 RLU | 298 RLU | 8860 RLU | 146 RLU | 35000 RLU | 543 RLU | 79 RLU | 287 RLU | 976 RLU | 436 RLU | 121 RLU | 151 RLU | Trimeric HA Binding: RLU [21]: 2210 RLU; Trimeric HA Binding: RLU [22]: 1570 RLU
B2 | 6900 RLU | 29000 RLU | 860 RLU | 76 RLU | 338 RLU | 830 RLU | 139 RLU | 465 RLU | 191 RLU | 266 RLU | 769 RLU | 63 RLU | 728 RLU | 25 RLU | 178 RLU | 70 RLU | 381 RLU | 117 RLU | 2970 RLU | 57 RLU | Trimeric HA Binding: RLU [23]: 139 RLU; Trimeric HA Binding: RLU [24]: 164 RLU; Trimeric HA Binding: RLU [25]: 9360 RLU; Trimeric HA Binding: RLU [26]: 64 RLU; Trimeric HA Binding: RLU [27]: 31 RLU; Trimeric HA Binding: RLU [21]: 131 RLU; Trimeric HA Binding: RLU [22]: 22 RLU
B3 | 197 RLU | 25700 RLU | 24600 RLU | 20200 RLU | 12400 RLU | 27200 RLU | 20600 RLU | 24000 RLU | 499 RLU | 25100 RLU | 9030 RLU | 6560 RLU | 20000 RLU | 12600 RLU | 2580 RLU | 24200 RLU | 1840 RLU | 28000 RLU | 25500 RLU | 20300 RLU | Trimeric HA Binding: RLU [23]: 26000 RLU; Trimeric HA Binding: RLU [28]: 6690 RLU; Trimeric HA Binding: RLU [24]: 172 RLU; Trimeric HA Binding: RLU [25]: 24600 RLU; Trimeric HA Binding: RLU [26]: 16300 RLU; Trimeric HA Binding: RLU [27]: 24400 RLU; Trimeric HA Binding: RLU [21]: 21700 RLU

— patent publication US20150086555A1
